# T1: IL-22R-Fc/IL-10R2-Fc heterodimer from co-expressing CHO cells (human, UniProt Q8N6P7 16-228; Q08334 20-220)
# T1 construct: extracellular domain; also called IL-22R/IL-10R2-Fc heterodimer; IL-22R-Fc/IL-10R2-Fc complex; not shown: human IgG1 Fc
# T1 sequence 1: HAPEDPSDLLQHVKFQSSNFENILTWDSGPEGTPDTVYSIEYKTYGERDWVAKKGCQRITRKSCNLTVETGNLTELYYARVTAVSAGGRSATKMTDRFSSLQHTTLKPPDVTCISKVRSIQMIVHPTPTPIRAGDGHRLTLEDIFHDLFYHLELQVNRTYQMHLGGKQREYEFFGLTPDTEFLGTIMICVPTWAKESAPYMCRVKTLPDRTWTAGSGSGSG
# T1 sequence 2: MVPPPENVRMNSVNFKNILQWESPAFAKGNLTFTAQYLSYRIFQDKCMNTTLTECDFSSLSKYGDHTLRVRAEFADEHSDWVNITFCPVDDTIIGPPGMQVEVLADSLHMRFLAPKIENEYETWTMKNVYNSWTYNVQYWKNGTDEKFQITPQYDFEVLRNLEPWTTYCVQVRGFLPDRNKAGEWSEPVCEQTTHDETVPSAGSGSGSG
# B1: biotinylated N terminal His/Flag tagged human IL-22 (ligand)
# chain: GSGHHHHHHGSGDYKDDDDKAPISSHCRLDKSNFQQPYITNRTFMLAKEASLADNNTDVRLIGEKLFHGVSMSERCYLMKQVLNFTLEEVLFPQSDRFQPYMQEVVPFLARLSNRLSTCHIEGDDLHIQRNVQKLKDTVKKLGESGEIKAIGELDLLFMSLRNACI
# modifications: biotinylated with EZ-Link Sulfo-NHS-Biotin (sites not given)
# notes: also called bio-IL-22; biotinylated IL-22
# B2: human IL-22R extracellular domain-Fc fusion homodimer (Fc fusion)
# chain: HAPEDPSDLLQHVKFQSSNFENILTWDSGPEGTPDTVYSIEYKTYGERDWVAKKGCQRITRKSCNLTVETGNLTELYYARVTAVSAGGRSATKMTDRFSSLQHTTLKPPDVTCISKVRSIQMIVHPTPTPIRAGDGHRLTLEDIFHDLFYHLELQVNRTYQMHLGGKQREYEFFGLTPDTEFLGTIMICVPTWAKESAPYMCRVKTLPDRTWTAGSGSGSG
# notes: extracellular domain; Used as CHO conditioned medium, not purified; also called IL-22R-Fc; IL-22RECD-Fc; not shown: human IgG1 Fc
# Experiments:
# [1] = target: T1, IL-22R-Fc/IL-10R2-Fc heterodimer from …; assay: ELISA, 50 ng/ml total Fc from co-expressing CHO captured on anti-human IgG, bio-IL-22 titrated (FIG. 8A)
# Experimental: The results shown in FIGS. 6A, 8A-8B, 9A-9B, 10B-10C and 11A-11C were obtained from ELISA assays where receptor Fc from CHO CM were first immobilized via an anti-hIgG coat. Flat bottom, 96-well ELISA plates (Costar, Cambridge, Mass.) were coated overnight at 4° C. with 100 μl goat anti-human IgG antibody (Southern Biotech Associates, Inc., Birmingham, Ala.) at 1 μg/ml in 0.1 M sodium carbonate buffer (pH 9.6). The plates were washed twice with 200 pi phosphate-buffered saline containing 0.05% Tween 20 (PBS-T), blocked with 100 μl 1% BSA (Sigma, St. Louis, Mo.) in PBS-T for 1 hour and washed three times. Following by one hour sequential incubations (100 ul), each separated by three washes, were then employed: a given receptor fusion(s) at a fixed concentration or serially diluted, biotinylated IL-22 (bio-IL-22) at a fixed concentration or serially diluted, and then 1/10,000 dilution of streptavidin-horse radish peroxidase (HRP) (Southern Biotech Associates, Inc., Birmingham, Ala.). […] Colorimetric detection of the peroxidase product was done at 450 nm in a Molecular Devices (Sunnyvale, Calif.) microplate reader.
# IL-22 binding to the ECD of IL-22R and IL-10R2 secreted as Fc heterodimer was then evaluated. […] The ability of cytokine to bind was then evaluated using various concentrations of bio-IL-22 as the detector (FIG. 8A). […]
# [2] = target: B2; assay: ELISA, IL-22R-Fc captured on anti-human IgG, bio-IL-22 titrated (FIG. 6A)
# Experimental: (§1) After a final set of washes, 100 μl of TMB Microwell peroxidase substrate (BioFX, Owings Mills, Md.) was added for 20 minutes and the reaction stopped with 100 μl 2N H₂SO₄. Colorimetric detection of the peroxidase product was done at 450 nm in a Molecular Devices (Sunnyvale, Calif.) microplate reader.
# FIG. 6B depicts the results form an ELISA assay performed in the opposite format, whereby 100 µl of 1 µg/ml biotinylated IL-22 was added to Reacti-Bind 96 well streptavidin-coated plates (Pierce, Rockford, Ill.) for one hour. After washing, Fc fusion receptor was added at various concentrations to the plates for one hour, washed and then detected with goat anti-human IgG-HRP. In FIG. 6A, fifty ng/ml of total Fc in conditioned media (CM) from CHO cells expressing either IL-22R-Fc (▪) or IL-10R2-Fc (O) was captured onto anti-human IgG coated wells. Biotinylated IL-22 (bio-IL-22) at various concentrations was then added to the wells. Bound bio-IL-22 was subsequently detected using streptavidin-HRP. In FIG. 6B, bio-IL-22 (1 μg/ml) was captured onto streptavidin plates. […] Bound receptor Fc was subsequently detected using goat anti-human IgG-HRP.
# IL-22 binding to the extracellular domain (ECD) of IL-22R and IL-10R2 was evaluated using two ELISA formats. […] Biotinylated IL-22 was then added and detected with streptavidin-HRP. […] Receptor-Fc were then added and detected with HRP-conjugated, anti-hIgG.
# [3] = target: B1; assay: ELISA, bio-IL-22 on streptavidin plates, IL-22R-Fc titrated (FIG. 6B)
# Experimental: FIG. 6B depicts the results form an ELISA assay performed in the opposite format, whereby 100 µl of 1 µg/ml biotinylated IL-22 was added to Reacti-Bind 96 well streptavidin-coated plates (Pierce, Rockford, Ill.) for one hour. After washing, Fc fusion receptor was added at various concentrations to the plates for one hour, washed and then detected with goat anti-human IgG-HRP. In FIG. 6A, fifty ng/ml of total Fc in conditioned media (CM) from CHO cells expressing either IL-22R-Fc (▪) or IL-10R2-Fc (O) was captured onto anti-human IgG coated wells. Biotinylated IL-22 (bio-IL-22) at various concentrations was then added to the wells. Bound bio-IL-22 was subsequently detected using streptavidin-HRP. In FIG. 6B, bio-IL-22 (1 μg/ml) was captured onto streptavidin plates. Various concentrations of either IL-22R-Fc (▪) or IL-10R2-Fc (O) in diluted CHO. CM was then added to the wells. Bound receptor Fc was subsequently detected using goat anti-human IgG-HRP.
# IL-22 binding to the extracellular domain (ECD) of IL-22R and IL-10R2 was evaluated using two ELISA formats. In the first version, receptor-Fc fusion proteins were immobilized via the Fc domain on anti-human IgG coated plates. Biotinylated IL-22 was then added and detected with streptavidin-HRP. […] Receptor-Fc were then added and detected with HRP-conjugated, anti-hIgG.
# [4] = target: B1; assay: blocking ELISA: IL-22BP-Fc pre-incubated 30 min with bio-IL-22 (5 ng/ml), added to 50 ng/ml total Fc of co-expressed IL-22R-Fc/IL-10R2-Fc captured on anti-human IgG wells; bound bio-IL-22 read with streptavidin-HRP, A450; blocked partner IL-22R-Fc/IL-10R2-Fc
# Experimental: as §1
# (§2) For certain ELISA assays of the above format where both the receptor Fc and bio-IL-22 are at a fixed concentration, IL-10R2-Fc was added at various concentrations either before or with bio-IL-22 (FIG. 9A) or after the bio-IL-22 (FIG. 9B). For other ELISA assays of the above format where the indicated receptor Fc and bio-IL-22 are also at a fixed concentration, antibodies (FIG. 10B-10C., 11C) or IL-22BP (FIG. 11A-11B) were added at various concentrations after a pre-incubation with the bio-IL-22 for 30 minutes. For ELISA assays in which the recruitment of IL-10R2-Fc to the IL-22/IL-22R complex was detected directly (data not shown, experimental design of FIG. 9A), non-biotinylated IL-22 was added to the ELISA and either polyclonal goat anti-hIL-10R2 or a mouse monoclonal anti-hIL-10R2 (R&D Systems, Inc, Minneapolis, Minn.) was used as detector.
# (§3) IL-22 binding protein (IL-22BP) is a soluble ‘receptor’ for IL-22 that has low homology to the extracellular domain of IL-22R. […]
# [5] = target: B1; assay: competition ELISA (printed as ND50): IL-22BP-Fc pre-incubated with bio-IL-22 5 ng/ml, binding to captured IL-22R/IL-10R2-Fc heterodimer (FIG. 11B by its legend); IL-22R/IL-10R2-Fc heterodimer immobilized (FIG. 11B; printed as FIG. 6B)
# Experimental: Colorimetric detection of the peroxidase product was done at 450 nm in a Molecular Devices (Sunnyvale, Calif.) microplate reader.
# as §2
# IL-22 binding protein (IL-22BP) is a soluble ‘receptor’ for IL-22 that has low homology to the extracellular domain of IL-22R. It neutralizes signal transduction mediated by IL-22 (Dumoutier, L. et al. (2001) J Immunol 166(12):7090-5; Kotenko, S. V. et al. (2001) J Immunol 166(12):7096-103; Xu, W. et al. (2001) Proc Natl Acad Sci USA 98(17):9511-6; Wei C-C et al. (2003) Genes & Immunity 4:204-21117). […]
# [6] = target: B1; assay: blocking ELISA: IL-22BP-Fc pre-incubated 30 min with bio-IL-22 (30 ng/ml), added to 50 ng/ml IL-22R-Fc captured on anti-human IgG wells; bound bio-IL-22 read with streptavidin-HRP, A450; blocked partner IL-22R-Fc
# Experimental: as §1, §2, §3
# [7] = target: B1; assay: competition ELISA (printed as ND50): IL-22BP-Fc pre-incubated with bio-IL-22 30 ng/ml, binding to captured IL-22R-Fc; IL-22R-Fc homodimer immobilized (FIG. 11A)
# Experimental: as §1, §2, §3
binder,measurement,setting,value
B1,fold less bio-IL-22 needed for a comparable signal than with immobilized IL-22R-Fc homodimer,[1],8 fold
same,EC50,[2],0.02 µg/mL
B2,EC50,[3],0.006 µg/mL
"human IL-22 binding protein-Fc fusion (Fc fusion, Fc fusion homodimer, used as CHO conditioned medium; also called IL-22BP-Fc; huIL22BP-huFc; not shown: human IgG1 Fc) TQSTHESLKPQRVQFQSRNFHNILQWQPGRALTGNSSVYFVQYKIYGQRQWKNKEDCWGTQELSCDLTSETSDIQEPYYGRVRAASAGSYSEWSMTPRFTPWWETKIDPPVMNITQVNGSLLVILHAPNLPYRYQKEKNVSIEDYYELLYRVFIINNSLEKEQKVYEGAHRAVEIEALTPHSSYCVVAEIYQPMLDRRSQRSEERCVEIPAGSGSGSG",IC50 (read off the curve),[4],~0.2 nM
same,IC50,[5],2 nM
same,IC50 (read off the curve),[6],~0.5 nM
same,IC50,[7],4 nM

# Reference: US20050042220A1 (GENETICS INSTITUTE, published 2005)
